Results reported in patent US20150344570A1 (published 2015).

T1: FcγRIIa R (human, UniProt P12318 34-217)
T1 construct: extracellular domain; also called FcgRIIa R type; 2aR
T1 sequence (looked up): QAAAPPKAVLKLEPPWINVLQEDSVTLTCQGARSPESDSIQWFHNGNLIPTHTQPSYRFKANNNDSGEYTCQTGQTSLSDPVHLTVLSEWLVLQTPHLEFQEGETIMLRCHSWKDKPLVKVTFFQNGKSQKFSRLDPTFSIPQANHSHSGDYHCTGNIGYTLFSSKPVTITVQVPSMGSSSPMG


The binders below were run against T1, FcγRIIa R (assay: SPR (Biacore), captured antibody, FcγR as analyte; relative binding activity).

| He/Con_2aR | Binder |
| --- | --- |
| 116 % (GpH7-A5/GpH7-B3/GpL16-k0 = 100) | GpH7-A5/GpH7-B3 variant G237_10E/GpL16-k0 (antibody, human IgG1, kappa, also called He Ab G237_10E) heavy 1: not shown heavy 2: not shown light: DIVMTQSPLSLPVTPGEPASISCQASESLVHSNRNTYLHWYLQKPGQSPQLLIYKVSNRFSGVPDRFSGSGSGTDFTLKISRVEAEDVGVYYCSQNTHVPPTFGQGTKVEIERTVAAPSVFIFPPSDEQLKSGTASVVCLLNNFYPREAKVQWKVDNALQSGNSQESVTEQDSKDSTYSLSSTLTLSKADYEKHKVYACEVTHQGLSSPVTKSFNRGEC |
| 106 % (GpH7-A5/GpH7-B3/GpL16-k0 = 100) | GpH7-A5/GpH7-B3 variant H268_05P/GpL16-k0 (antibody, human IgG1, kappa, also called He Ab H268_05P) heavy 1: not shown heavy 2: not shown light: DIVMTQSPLSLPVTPGEPASISCQASESLVHSNRNTYLHWYLQKPGQSPQLLIYKVSNRFSGVPDRFSGSGSGTDFTLKISRVEAEDVGVYYCSQNTHVPPTFGQGTKVEIERTVAAPSVFIFPPSDEQLKSGTASVVCLLNNFYPREAKVQWKVDNALQSGNSQESVTEQDSKDSTYSLSSTLTLSKADYEKHKVYACEVTHQGLSSPVTKSFNRGEC |
| 129 % (GpH7-A5/GpH7-B3/GpL16-k0 = 100) | GpH7-A5/GpH7-B3 variant G237_15Y/GpL16-k0 (antibody, human IgG1, kappa, also called He Ab G237_15Y) heavy 1: not shown heavy 2: not shown light: DIVMTQSPLSLPVTPGEPASISCQASESLVHSNRNTYLHWYLQKPGQSPQLLIYKVSNRFSGVPDRFSGSGSGTDFTLKISRVEAEDVGVYYCSQNTHVPPTFGQGTKVEIERTVAAPSVFIFPPSDEQLKSGTASVVCLLNNFYPREAKVQWKVDNALQSGNSQESVTEQDSKDSTYSLSSTLTLSKADYEKHKVYACEVTHQGLSSPVTKSFNRGEC |
| 121 % (GpH7-A5/GpH7-B3/GpL16-k0 = 100) | GpH7-A5/GpH7-B3 variant G237_19Q/GpL16-k0 (antibody, human IgG1, kappa, also called He Ab G237_19Q) heavy 1: not shown heavy 2: not shown light: DIVMTQSPLSLPVTPGEPASISCQASESLVHSNRNTYLHWYLQKPGQSPQLLIYKVSNRFSGVPDRFSGSGSGTDFTLKISRVEAEDVGVYYCSQNTHVPPTFGQGTKVEIERTVAAPSVFIFPPSDEQLKSGTASVVCLLNNFYPREAKVQWKVDNALQSGNSQESVTEQDSKDSTYSLSSTLTLSKADYEKHKVYACEVTHQGLSSPVTKSFNRGEC |
| 150 % (GpH7-A5/GpH7-B3/GpL16-k0 = 100) | GpH7-A5/GpH7-B3 variant G237_18N/GpL16-k0 (antibody, human IgG1, kappa, also called He Ab G237_18N) heavy 1: not shown heavy 2: not shown light: DIVMTQSPLSLPVTPGEPASISCQASESLVHSNRNTYLHWYLQKPGQSPQLLIYKVSNRFSGVPDRFSGSGSGTDFTLKISRVEAEDVGVYYCSQNTHVPPTFGQGTKVEIERTVAAPSVFIFPPSDEQLKSGTASVVCLLNNFYPREAKVQWKVDNALQSGNSQESVTEQDSKDSTYSLSSTLTLSKADYEKHKVYACEVTHQGLSSPVTKSFNRGEC |
| 121 % (GpH7-A5/GpH7-B3/GpL16-k0 = 100) | GpH7-A5/GpH7-B3 variant G237_13S/GpL16-k0 (antibody, human IgG1, kappa, also called He Ab G237_13S) heavy 1: not shown heavy 2: not shown light: DIVMTQSPLSLPVTPGEPASISCQASESLVHSNRNTYLHWYLQKPGQSPQLLIYKVSNRFSGVPDRFSGSGSGTDFTLKISRVEAEDVGVYYCSQNTHVPPTFGQGTKVEIERTVAAPSVFIFPPSDEQLKSGTASVVCLLNNFYPREAKVQWKVDNALQSGNSQESVTEQDSKDSTYSLSSTLTLSKADYEKHKVYACEVTHQGLSSPVTKSFNRGEC |
| 124 % (GpH7-A5/GpH7-B3/GpL16-k0 = 100) | GpH7-A5/GpH7-B3 variant H268_01G/GpL16-k0 (antibody, human IgG1, kappa, also called He Ab H268_01G) heavy 1: not shown heavy 2: not shown light: DIVMTQSPLSLPVTPGEPASISCQASESLVHSNRNTYLHWYLQKPGQSPQLLIYKVSNRFSGVPDRFSGSGSGTDFTLKISRVEAEDVGVYYCSQNTHVPPTFGQGTKVEIERTVAAPSVFIFPPSDEQLKSGTASVVCLLNNFYPREAKVQWKVDNALQSGNSQESVTEQDSKDSTYSLSSTLTLSKADYEKHKVYACEVTHQGLSSPVTKSFNRGEC |
| 109 % (GpH7-A5/GpH7-B3/GpL16-k0 = 100) | GpH7-A5/GpH7-B3 variant H268_03V/GpL16-k0 (antibody, human IgG1, kappa, also called He Ab H268_03V) heavy 1: not shown heavy 2: not shown light: DIVMTQSPLSLPVTPGEPASISCQASESLVHSNRNTYLHWYLQKPGQSPQLLIYKVSNRFSGVPDRFSGSGSGTDFTLKISRVEAEDVGVYYCSQNTHVPPTFGQGTKVEIERTVAAPSVFIFPPSDEQLKSGTASVVCLLNNFYPREAKVQWKVDNALQSGNSQESVTEQDSKDSTYSLSSTLTLSKADYEKHKVYACEVTHQGLSSPVTKSFNRGEC |
| 138 % (GpH7-A5/GpH7-B3/GpL16-k0 = 100) | GpH7-A5/GpH7-B3 variant G237_20W/GpL16-k0 (antibody, human IgG1, kappa, also called He Ab G237_20W) heavy 1: not shown heavy 2: not shown light: DIVMTQSPLSLPVTPGEPASISCQASESLVHSNRNTYLHWYLQKPGQSPQLLIYKVSNRFSGVPDRFSGSGSGTDFTLKISRVEAEDVGVYYCSQNTHVPPTFGQGTKVEIERTVAAPSVFIFPPSDEQLKSGTASVVCLLNNFYPREAKVQWKVDNALQSGNSQESVTEQDSKDSTYSLSSTLTLSKADYEKHKVYACEVTHQGLSSPVTKSFNRGEC |
